In IntAct's records for PubMed 20639859:

B1: Serine/threonine-protein kinase Chk1 (Homo sapiens), O14757 (parent)
chain: MAVPFVEDWDLVQTLGEGAYGEVQLAVNRVTEEAVAVKIVDMKRAVDCPENIKKEICINKMLNHENVVKFYGHRREGNIQYLFLEYCSGGELFDRIEPDIGMPEPDAQRFFHQLMAGVVYLHGIGITHRDIKPENLLLDERDNLKISDFGLATVFRYNNRERLLNKMCGTLPYVAPELLKRREFHAEPVDVWSCGIVLTAMLAGELPWDQPSDSCQEYSDWKEKKTYLNPWKKIDSAPLALLHKILVENPSARITIPDIKKDRWYNKPLKKGAKRPRVTSGGVSESPSGFSKHIQSNLDFSPVNSASSEENVKYSSSQPEPRTGLSLWDTSPSYIDKLVQGISFSQPTCPDHMLLNSQLLGTPGSSQNPWQRLVKRMTRFFTKLDADKSYQCLKETCEKLGYQWKKSCMNQVTISTTDRRNNKLIFKVNLLEMDDKILVDFRLSKGDGLEFKRHFLKIKGKLIDIVSSQKIWLPAT
partner: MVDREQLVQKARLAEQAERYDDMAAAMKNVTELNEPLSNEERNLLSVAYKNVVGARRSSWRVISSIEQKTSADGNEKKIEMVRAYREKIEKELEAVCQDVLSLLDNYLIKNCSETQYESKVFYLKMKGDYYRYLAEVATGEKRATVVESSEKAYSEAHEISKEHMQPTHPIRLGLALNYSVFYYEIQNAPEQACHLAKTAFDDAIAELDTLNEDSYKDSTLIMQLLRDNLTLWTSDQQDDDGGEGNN

Variants of: B1
Settings: with 1433g_human YWHAG

Row | Variant | effect of a mutation on the interaction
1 | MAVPFVEDWDLVQTLGEGAYGEVQLAVNRVTEEAVAVKIVDMKRAVDCPENIKKEICINKMLNHENVVKFYGHRREGNIQYLFLEYCSGGELFDRIEPDIGMPEPDAQRFFHQLMAGVVYLHGIGITHRDIKPENLLLDERDNLKISDFGLATVFRYNNRERLLNKMCGTLPYVAPELLKRREFHAEPVDVWSCGIVLTAMLAGELPWDQPSDSCQEYSDWKEKKTYLNPWKKIDSAPLALLHKILVENPSARITIPDIKKDRWYNKPLKKGAKRPRVTSGGVSESPSGFSKHIQANLDFSPVNSASSEENVKYSSSQPEPRTGLSLWDTSPSYIDKLVQGISFSQPTCPDHMLLNSQLLGTPGSSQNPWQRLVKRMTRFFTKLDADKSYQCLKETCEKLGYQWKKSCMNQVTISTTDRRNNKLIFKVNLLEMDDKILVDFRLSKGDGLEFKRHFLKIKGKLIDIVSSQKIWLPAT [S296A] | disrupting interaction

Variants of: B1
Settings: with 1433g_human YWHAG
Remark: another data set of the same source

Row | Variant | effect of a mutation on the interaction
2 | MAVPFVEDWDLVQTLGEGAYGEVQLAVNRVTEEAVAVMIVDMKRAVDCPENIKKEICINKMLNHENVVKFYGHRREGNIQYLFLEYCSGGELFDRIEPDIGMPEPDAQRFFHQLMAGVVYLHGIGITHRDIKPENLLLDERDNLKISDFGLATVFRYNNRERLLNKMCGTLPYVAPELLKRREFHAEPVDVWSCGIVLTAMLAGELPWDQPSDSCQEYSDWKEKKTYLNPWKKIDSAPLALLHKILVENPSARITIPDIKKDRWYNKPLKKGAKRPRVTSGGVSESPSGFSKHIQSNLDFSPVNSASSEENVKYSSSQPEPRTGLSLWDTSPSYIDKLVQGISFSQPTCPDHMLLNSQLLGTPGSSQNPWQRLVKRMTRFFTKLDADKSYQCLKETCEKLGYQWKKSCMNQVTISTTDRRNNKLIFKVNLLEMDDKILVDFRLSKGDGLEFKRHFLKIKGKLIDIVSSQKIWLPAT [K38M] | disrupting interaction
